Measurements: patent US20140147453

T1: MFK24 peptide (mdhFas-1-GPQGIAG-QERGDSLA) (UniProt P82198)
T1 sequence: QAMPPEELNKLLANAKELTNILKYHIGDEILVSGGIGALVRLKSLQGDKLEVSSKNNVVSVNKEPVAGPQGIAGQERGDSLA

T2: MFK25 peptide (mdhFas-1-GPLGIAG-QERGDSLA) (UniProt P82198)
T2 sequence: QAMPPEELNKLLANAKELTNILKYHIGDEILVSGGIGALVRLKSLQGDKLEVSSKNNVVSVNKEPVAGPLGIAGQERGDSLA

T3: MFK23 peptide (mdhFas-1-GPLGVRG-QERGDSLA) (UniProt P82198)
T3 sequence: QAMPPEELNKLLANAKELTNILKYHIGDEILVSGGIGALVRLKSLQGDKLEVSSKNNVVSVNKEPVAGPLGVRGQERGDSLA

T4: MFK24 peptide (mdhFas-1-GPQGIAG-QERGDSLA), P82198
T4 chain: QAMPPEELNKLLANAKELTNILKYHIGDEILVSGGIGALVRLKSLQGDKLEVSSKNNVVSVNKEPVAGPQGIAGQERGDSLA

B1: cathepsin K (enzyme, UniProt P43235 115-329, looked up, species assumed)
Cathepsin K: APDSVDYRKKGYVTPVKNQGQCGSCWAFSSVGALEGQLKKKTGKLLNLSPQNLVDCVSENDGCGGGYMTNAFQYVQKNRGIDSEDAYPYVGQEESCMYNPTGKAAKCRGYREIPEGNEKALKRAVARVGPVSVAIDASLTSFQFYSKGVYYDESCNSDNLNHAVLAVGYGIQKGNKHWIIKNSWGENWGNKGYILMARNKNNACGIANLASFPKM
B2: MMP-1 secreted from a human Synovial membrane cell (human FLS stimulated with IL-1β) (protein)
chain: FPATLETQEQDVDLVQKYLEKYYNLKNDGRQVEKRRNSGPVVEKLKQMQEFFGLKVTGKPDAETLKVMKQPRCGVPDVAQFVLTEGNPRWEQTHLTYRIENYTPDLPRADVDHAIEKAFQLWSNVTPLTFTKVSEGQADIMISFVRGDHRDNSPFDGPGGNLAHAFQPGPGIGGDAHFDEDERWTNNFREYNLHRVAAHELGHSLGLSHSTDIGALMYPSYTFSGDVQLAQDDIDGIQAIYGRSQNPVQPIGPQTPKACDSKLTFDAITTIRGEVMFFKDRFYMRTNPFYPEVELNFISVFWPQLPNGLEAAYEFADRDEVRFFKGNKYWAVQGQNVLHGYPKDIYSSFGFPRTVKHIDAALSEENTGKTYFFVANKYWRYDEYKRSMDPGYPKMIAHDFPGIGHKVDAVFMKDGFFYFFHGTRQYKFDPKTKRILTLQKANSWFNCRKN

Assays:
[1] = biological target: T1, MFK24 peptide (mdhFas-1-GPQGIAG-QERGDSLA)
[2] = biological target: T2, MFK25 peptide (mdhFas-1-GPLGIAG-QERGDSLA)
[3] = biological target: T3, MFK23 peptide (mdhFas-1-GPLGVRG-QERGDSLA)
[4] = biological target: T4, MFK24 peptide …

Molecule	enzymatic digestion test (immunoblot with anti-Histidine or anti-Bigh3) [1]	enzymatic digestion test (immunoblot with anti-Histidine or anti-Bigh3) [2]	enzymatic digestion test (immunoblot with anti-Histidine or anti-Bigh3) [3]	culture analysis of enzymatic digestion (human FLS + IL-1β, 1 uM peptide, 3 and 6 hours; immunoblot anti-histidine versus anti-βig-h3) [4]
MMP-1 (matrix metalloproteinase 1)	MFK24 was concentration-dependently cleaved through treatment with MMP-1	MFK25 was concentration-dependently cleaved through treatment with MMP-1, MMP-2 and MMP-3, and especially, well cleaved by MMP-1 and MMP-3		
MMP-2 (matrix metalloproteinase 2)		MFK25 was concentration-dependently cleaved through treatment with MMP-1, MMP-2 and MMP-3	MFK23 was concentration-dependently cleaved through treatment with MMP-2	
MMP-3 (matrix metalloproteinase 3)		MFK25 was concentration-dependently cleaved through treatment with MMP-1, MMP-2 and MMP-3, and especially, well cleaved by MMP-1 and MMP-3		
cathepsin D		MFK25 was not cleaved through treatment with cathepsin K, L or D	MFK23 was not cleaved through treatment with cathepsin K, L or D	
cathepsin L		MFK25 was not cleaved through treatment with cathepsin K, L or D	MFK23 was not cleaved through treatment with cathepsin K, L or D	
B1		MFK25 was not cleaved through treatment with cathepsin K, L or D	MFK23 was not cleaved through treatment with cathepsin K, L or D	
B2				in the use of the anti-histidine antibody, MFK24 was measured in a smaller amount than that in the use of the anti-βig-h3 antibody
